Experimental data taken from patent publication EP0811683B1, “Antibodies to human gastrin-releasing peptide precursor and use thereof” (Yamaguchi, Ken, priority 1996, dated 1997).
Where no end group is shown, it is not given here.

Test: Comparison of stability of GRPs in the blood (serum, plasma, aprotinin-containing plasma; Fig. 3)
Type: in vitro ADME
Details: 0, 1 and 6 hours, result in words
Procedure: Stabilities in the blood of GRP(1-27) and GRP(31-98) were compared using antibodies to the above-prepared GRP(31-98) and antibodies to the conventional GRP(1-27).
A small amount of GRP(1-27) or GRP(31-98) was added to a serum, plasma, or aprotinin - containing plasma, and the residual concentration of GRP(1-27) and GRP(31-98) was determined at 0, 1, and 6 hours from the addition, and the percentages of the residual concentration were obtained taking the concentration at the starting point (0 hour) as 100%.

## GRP(1-27): mature human gastrin-releasing peptide, active peptide of 27 amino acids (VPLPAGGGTVLTKMYPRGNHWAVGHLM; ends and bridges not checked; UniProt P07492 24-50, looked up)
  stability in serum or plasma (residual concentration): degraded and disappeared
